Each block holds one substance with its values, some of them ahead of it.
Legend:
[1] = biological target: GPI-YFP, a fusion protein containing the total sequence of YFP fused to a glycosylphosphatidylinositol (GPI)-membrane attachment signal; test: cross-linking; intact CHO-K1 cells, 2 mM membrane-impermeable BS3, 4 °C, 45 min, quenched with 50 mM glycine; SDS-PAGE and Western blot
[2] = biological target: caveolin-1 (Chinese hamster (endogenous in CHO-K1)); test: cross-linking; intact CHO-K1 cells, 0.5 mM membrane-permeable DSP, room temperature, 45 min, quenched with 50 mM glycine; SDS-PAGE and Western blot; cross-link reversed by beta-mercaptoethanol
[3] = biological target: full-length human Neu3 tagged at the C-terminus with a c-Myc epitope (human); test: non-reducing SDS-PAGE with Western blot; total homogenates of NEU3-transfected CHO-K1 cells separated by SDS-PAGE with or without 5% beta-mercaptoethanol; blotted with anti-Neu3 antibody

stoichiometry N [1]: 2
Substance: GPI-YFP, a fusion protein containing the total sequence of YFP fused to a glycosylphosphatidylinositol (GPI)-membrane attachment signal

stoichiometry N [2]: 2
Substance: caveolin-1 (natural protein)

percent of the total enzyme in the ~125 kDa band [3]: 25% | stoichiometry N [3]: 2
Substance: full-length human Neu3 tagged at the C-terminus with a c-Myc epitope (enzyme)
